Results reported in the domain aggregation screens of Martell et al. (2025).

Test: soluble fraction after stress (log2 fold change); higher = more stays soluble; pooled small domains, quantitative proteomics
Settings: stress: 75 degC
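Note: 20 min heating vs room temperature control held 20 min.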

Question: For “HMELLPAERRQQLVDWFKSNQAGTSQDLARMFGISVSTIRRDLDLLASEGLVKRTHGGAVSIR”, which “soluble fraction (log2)” value is on record?
Answer: -0.055

Question: With “HMELLPFEFARANRVLLRVNESDLVVSPDANHSAVTEILRLNNNIETIKSVDAEAFDKILSSIYSG” as the sequence, how does the “soluble fraction (log2)” value read?
Answer: -0.804

Question: Which “soluble fraction (log2)” value does the source give for “HMELLSVPSRLGTFFLGGEAGHIIRLYLPGDPTPRIAEHETPVLSEARRQLLEYLAGRRTAFSFPL” here?
Answer: -0.0691

Question: With “HMELNEIEFENLKESIIIHLEKESLSPHELVKHIQTIHPDKVTAVIQWMLENGFIKTDAGGQLTLVSK” as the sequence, how does the “soluble fraction (log2)” value read?
Answer: 0.199

Question: For “HMELNELTSRELMVAEQVARGASNREISEALSISERTVKAHLSAAFEKLGVRDRVQLALAMNNIPT”, which “soluble fraction (log2)” value is on record?
Answer: -0.106

Question: Which “soluble fraction (log2)” value does the source give for “HMELNKNDLKIIKNISHIYPYFTPVKILQLILSKKFKTIDYNKILKSTSILTTDRSHLYYILNN” here?
Answer: 0.0816

Question: Which “soluble fraction (log2)” value does the source give for “HMELPSDEHLDDISHLARIGHKKGLQEKIIQLEQQGLASAEFIQQLKTLTNNFQFEKIIQWVDSEL” here?
Answer: -0.055

Question: Which “soluble fraction (log2)” value does the source give for “HMELRIREILESKDIKVSSLAETVGITRANMSNIVNGKSTPSLETLEKIANALGVDITELFA” here?
Answer: -0.432

Question: For “HMELSAEGWVDGTGVRMRASASTDSEVVRVTEDGESLDITGVSGTWYRVTAGGVSGYIRSDYVSLEEP”, which “soluble fraction (log2)” value is on record?
Answer: -0.0699

Question: With “HMELSAQEIGRRLRIARENADIRQDDAAQVIGMSRPTLVSIEKGVRRVRIQEIQMLARHYGVSVNALLR” as the sequence, how does the “soluble fraction (log2)” value read?
Answer: -2.2

Question: Which “soluble fraction (log2)” value does the source give for “HMELSVTDRTRQIRHILKEKGRVEFTSLFEELTKPYVIVTFLSVLEMSKNNELMITQDKTFGSITLEMKG” here?
Answer: -0.446

Question: With “HMELVIGESLAVELLRPGKEDGQALGYLPDGSMVVVNNGRAFVGKRVTAEIIGVIRSAGGKMVFSNLLGE” as the sequence, how does the “soluble fraction (log2)” value read?
Answer: -3.36

Question: For “HMEMDITIQMRTLVEELNRASDAYYNGRGELMTDYEWDAKFDQLKQLESQSGVVLPDSPTHRV”, which “soluble fraction (log2)” value is on record?
Answer: -0.244

Question: For “HMEMELNHVARRAGRLSGFLKGELRLSTGLMNRLKWSNAILVNGKPARTNAQVEPGDRITVILD”, which “soluble fraction (log2)” value is on record?
Answer: -2.35

Question: With “HMEMLQENIRNLRKAKGWSQEELAIKLNVVRQTVSKWEKGLSVPDSQMLIRIADELDTTVAILLG” as the sequence, how does the “soluble fraction (log2)” value read?
Answer: -0.705

Question: For “HMEMLQRFIFLENVSSTQVESAIKELHPNLNLKRVKLSFPGADTVLLKGPKQDLELAEELIRHLDRSE”, which “soluble fraction (log2)” value is on record?
Answer: -0.652

Question: For “HMEMPGGVMRTLSTIAYNQPVLQSKLVKVRGPRAYEDVHILRDMGLVSARSVGQTVELSTTPKFAEQF”, which “soluble fraction (log2)” value is on record?
Answer: -0.622

Question: With “HMENEIFVPKVFMDWYNKVDKSIKVFKAFNLIEKETDPRLKEWVEDNQDEFAKIWLGQLLPVV” as the sequence, how does the “soluble fraction (log2)” value read?
Answer: -0.155

Question: With “HMENFIPDDPKRIEIGMSVLHQRFGKGKVMQLEGNLPDMKATVNFEGEGQKQLLLKYARLKIV” as the sequence, how does the “soluble fraction (log2)” value read?
Answer: -0.99

Question: With “HMENIDVGQDYKVTMNTIQNLMKTGLVTGTQYKELLREMGVHSGMGAITAQQHQIALDFLNKTMDSA” as the sequence, how does the “soluble fraction (log2)” value read?
Answer: ≥ 1.04

Question: With “HMENIIKISASYEGLRVDQFLSNYLKISRSKVQKYISEEKIFLNNVPTKTNRKVKLDDIISYNLNF” as the sequence, how does the “soluble fraction (log2)” value read?
Answer: -3.01

Question: With “HMENITTILRSIKNEIKKNSTFVGDDFVNQARSMNQGQIKEKSIYGHGTKKEIEELRDEGVDVLNIPWIT” as the sequence, how does the “soluble fraction (log2)” value read?
Answer: -0.104

Question: For “HMENKIIKNAAHATLKVKKDAGIEITTELIREAVILFHRIYSPNDNPNINWERIINELESHYT”, which “soluble fraction (log2)” value is on record?
Answer: -3.66

Question: For “HMENLFPDYTMQDYRIVRSELSSKFKVQTVPVTTATATENKIVRQEPEAGSRITEGMTVILYYSIGPE”, which “soluble fraction (log2)” value is on record?
Answer: -1.51

Question: For “HMENLRLSELTVERGHRLAGRTLADIASAPNSPKYLIVLIQRGQETVIPTGSTVILPGDVLILAQS”, which “soluble fraction (log2)” value is on record?
Answer: -1.7

Question: For “HMENMSFGTKLYTWLYGKLVGSDEIGNKYYTNINDPSDLNAKRWVIFNGEIEASKIPPHWHAWLHKSIDK”, which “soluble fraction (log2)” value is on record?
Answer: -0.918

Question: For “HMENMTLGQRIQALRKQHGLSQEGLGERLGVSRQAISRWEMDGAVPEVDKLIAMARLFGVSLNQLLGVE”, which “soluble fraction (log2)” value is on record?
Answer: -0.193

Question: Which “soluble fraction (log2)” value does the source give for “HMENNIPANIKALIISYVNQNYPGAVIHSIERNSNGTYDVEIYYNNREYDLLFDAQGNFISGNVDDQ” here?
Answer: -0.0333

Question: With “HMENNIRLSVPDTESGQRIDSYLAEQIPGLTRSAVQNLLAEQAVTIAGKAVKKNYKLLGGEDILVQLPEVR” as the sequence, how does the “soluble fraction (log2)” value read?
Answer: 0.217

Question: Which “soluble fraction (log2)” value does the source give for “HMENPPISVVIPPSFRGQRIDKALGSLIGDYSRSKIQQWLQSGLVQSAGEPLLPKYTVLGNEQILIAVPS” here?
Answer: -0.13

Question: For “HMENQGEDMRQQVKALVNADKTNITKLATATGYSRSTISMYLAGNYKGDVEAVERRLEEYMKTQG”, which “soluble fraction (log2)” value is on record?
Answer: -0.0512

Question: For “HMENSYSVEDLALKAAISVDTIRYYQGLGLISPPQKNGRRAIYGNDHISRLEEIKKLAFEGFSLRQISLL”, which “soluble fraction (log2)” value is on record?
Answer: 0.111

Question: With “HMENTIPSVIGRTLSDGVFLLESYGYVKGNVSEEFSEMPIGVIIRQFPGAGSAAEAGTRVDLVVSKGEEIV” as the sequence, how does the “soluble fraction (log2)” value read?
Answer: 0.124

Question: With “HMENVALYIRLKSMASVYDDVHGYNIEWIKSMIGLSIDIEKLRTVLEDVSWITKVEEDVYSFSKNAKPFE” as the sequence, how does the “soluble fraction (log2)” value read?
Answer: -4.31

Question: Which “soluble fraction (log2)” value does the source give for “HMENVQLRNFAIKATEAGIIKLSSDQRTFMWASNQKKLMTVPFDEHPYSAMAQFFKTDEGLAVFKSIEKKL” here?
Answer: -1.47

Question: With “HMEPADALVAALVARGVSPSTARITVKQYPATRIQPQLEVFDYLVAQKDPKVSRNPPGFLLSAIRGEYA” as the sequence, how does the “soluble fraction (log2)” value read?
Answer: -0.718

Question: With “HMEPAPELTPREQQVLARIALGMTDKAIAEELGVSHQTVRNHVARIYQKIKVHSRSQAVVWAREKGI” as the sequence, how does the “soluble fraction (log2)” value read?
Answer: -1.47

Question: With “HMEPDEESVRLKEEILSRIDYWHTTMPYMGTRKLAAKLRTEGYAVGRKLVRTYMREMGIHAVYP” as the sequence, how does the “soluble fraction (log2)” value read?
Answer: -0.103
